Laboratory results taken from patent EP2386565A2, “Compounds and methods to inhibit or augment an inflammatory response” (Cambridge Enterprise Ltd., priority 1999, dated 2000).
Positions of bridges follow the written chain, without caps; N, C: chain ends. Non-standard residues stand in square brackets, D forms with d. No end group written: not given here. *: point of attachment. Biotin = O=C1N[C@H]2[C@H](CS[C@H]2CCCCC(=O)*)N1

Key:
[1] = molecular target: T1, Duffy Antigen Receptor for Chemokines (DARC) (human) (UniProt Q16570); test: estimated ka for binding to red blood cells divided by average inhibitory ED50 in THP-1 migration
T1 sequence (looked up): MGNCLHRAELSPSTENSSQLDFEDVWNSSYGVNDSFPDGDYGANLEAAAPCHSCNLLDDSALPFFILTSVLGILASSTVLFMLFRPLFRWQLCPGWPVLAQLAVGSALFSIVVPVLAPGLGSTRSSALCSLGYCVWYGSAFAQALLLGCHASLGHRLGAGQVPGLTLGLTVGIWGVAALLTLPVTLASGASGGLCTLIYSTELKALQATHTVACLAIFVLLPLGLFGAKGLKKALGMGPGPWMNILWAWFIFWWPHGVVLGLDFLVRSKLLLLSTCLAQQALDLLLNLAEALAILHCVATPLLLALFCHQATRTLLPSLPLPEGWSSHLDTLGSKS

[2] = molecular target: chemokine receptors on THP-1 cells; test: binding to THP-1 cells; printed as association constant in concentration units
[3] = molecular target: T1, Duffy Antigen Receptor for Chemokines (DARC) (human); test: ka for binding to red blood cells divided by ka for binding to THP-1 cells
[4] = molecular target: chemokine receptors on THP-1 cells; test: estimated ka for binding to THP-1 cells (column 'average ED50', peptide 2 family footnote)
[5] = molecular target: T1, Duffy Antigen Receptor for Chemokines (DARC) (human); test: Table 18, DARC binding (µM); method not restated
[6] = molecular target: T1, Duffy Antigen Receptor for Chemokines (DARC) (human); test: Table 18, DARC binding (µM); >100 = ED50 not determined
[7] = molecular target: chemokine receptors on THP-1 cells; test: binding to chemokine receptors on THP-1 cells; given as association constant
[8] = molecular target: chemokine receptors on THP-1 cells; test: biotinylated peptide 2 on THP-1 cells, streptavidin-peroxidase, with and without 100 µM peptide 3; given as affinity constant
[9] = molecular target: chemokine receptors on the surface of Jurkat cells; test: binding to chemokine receptors on the surface of Jurkat cells; printed as Ka in concentration units
[10] = molecular target: chemokine receptors on THP-1 cells; test: binding to chemokine receptors on THP-1 cells; printed as Ka in concentration units
[11] = molecular target: T1, Duffy Antigen Receptor for Chemokines (DARC) (human); test: DARC binding; method not restated
[12] = molecular target: chemokine receptors on THP-1 cells; test: comparison of DARC binding and THP-1 cells
[13] = molecular target: T2, Duffy Antigen Receptor for Chemokines (DARC) (human), Q16570; test: Duffy binding; kind of constant not named
T2 chain: T1 sequence (looked up)

[14] = molecular target: T2, Duffy Antigen Receptor for Chemokines …; test: Table 18, DARC binding (µM); method not restated
[15] = molecular target: T2, Duffy Antigen Receptor for Chemokines …; test: Duffy binding against the LFL peptide
CXCR4 (human), P61073 = molecular target: T3, CXCR4 (human), P61073; test: not stated; given as affinity constant
T3 chain: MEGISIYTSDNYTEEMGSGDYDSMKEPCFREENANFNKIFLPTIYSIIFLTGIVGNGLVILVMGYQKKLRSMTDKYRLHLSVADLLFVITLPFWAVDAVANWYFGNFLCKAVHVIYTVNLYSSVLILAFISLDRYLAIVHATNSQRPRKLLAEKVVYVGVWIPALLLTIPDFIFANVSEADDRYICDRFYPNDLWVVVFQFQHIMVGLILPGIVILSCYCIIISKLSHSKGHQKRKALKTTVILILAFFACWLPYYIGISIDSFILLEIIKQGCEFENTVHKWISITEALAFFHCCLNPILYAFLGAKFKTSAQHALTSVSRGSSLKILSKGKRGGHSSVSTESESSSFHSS

CCR5 (human), P51681 = test: not stated; given as affinity constant
Chain of CCR5 (human), P51681 (P51681 whole entry): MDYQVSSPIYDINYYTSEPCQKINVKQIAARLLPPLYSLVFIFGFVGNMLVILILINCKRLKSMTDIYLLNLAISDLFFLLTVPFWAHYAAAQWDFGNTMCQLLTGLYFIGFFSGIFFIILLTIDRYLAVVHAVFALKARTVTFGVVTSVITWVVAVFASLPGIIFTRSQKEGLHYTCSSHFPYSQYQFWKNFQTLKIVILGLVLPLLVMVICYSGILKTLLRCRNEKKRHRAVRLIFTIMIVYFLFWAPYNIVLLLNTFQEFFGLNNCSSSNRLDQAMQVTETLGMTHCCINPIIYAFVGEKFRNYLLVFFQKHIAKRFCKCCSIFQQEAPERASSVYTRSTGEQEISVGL

## EICADPKQKWVQ [Peptide 3(1-12)[MCP-1]]
[1]
  Duffy selectivity: 1
[2]
  Kd: 10000 nM

## [dC][dQ][dV][dW][dK][dQ][dK][dP][dD][dA][dC] (disulfide 1-11; not fully specified) [CRD-Cys13pep3[3-12]]
[1]
  Duffy selectivity: 8.82

## HLKILNTPNCALQIV [Pep2(1-15)[SDF1]]
Chemokine receptors
  gp120 ED-50: 35 µM
[3]
  Duffy selectivity: < 1
[4]
  Kd: 1000 to 10000 nM
[5]
  DARC binding: 19 µM

## [dC][dV][dA][dE][dK][dP][dS][dK][dS][dS][dT][dI][dR][dR][dY][dS][dC] (cysteine pairing not given here) [LRD Cys0Ser10Cys16 derivative of peptide 2(1-15)[MCP-1]]
[6]
  DARC binding: > 100 µM

## DYFETSSQCSKPGV [Pep2(1-14)[MIP1α]]
Chemokine receptors
  gp120 ED-50: > 100 µM
[4]
  Kd: 1000 to 10000 nM
[7]
  Kd: 100 to 900 nM

## EICADPSQKWVQ [Ser7peptide 3(1-12)[MCP-1]]
[1]
  Duffy selectivity: 2

## KQKWVQ [Peptide 3(7-12)[MCP-1]]
[1]
  Duffy selectivity: 2.94

## EICADPSEEWVQ (not fully specified) [Ser7Glu8Glu9peptide 3(1-12)[MCP-1]]
[1]
  Duffy selectivity: 0.59

## Biotin-SYRRITSSKCPKEAV [N-terminal biotin-labeled derivative of peptide 2(1-15)[MCP-1]]
[8]
  Kd: 250000 nM

## CPKEAV
[6]
  DARC binding: > 100 µM

## ELRVIESGPHCANTEI [Pep2(1-16)[IL8]]
[4]
  Kd: 1000 to 10000 nM

## SYRRITSSKCPKEAV [Peptide 2(1-15)[MCP-1]]
Chemokine receptors
  gp120 ED-50: 0.4 µM
[4]
  Kd: 2000 nM
[9]
  Kd: 250 nM
[10]
  Kd: 300 nM

## CADPKQKWVQ [Peptide 3(3-12)[MCP-1]]
[1]
  Duffy selectivity: 1.21

## SYRRITSSKSPKEAV [Ser10 variant of peptide 2(1-15)[MCP-1]]
[11]
  DARC binding: 20 to 100 µM

## EICLDPKQKWIQ [Leu4Ile11peptide 3(1-12)[MCP-1]]
[12]
  selectivity for receptors on THP-1 cells over DARC: > 20 fold

## VAEKPCKSSTIRRYS (not fully specified (some residues)) [LRD peptide 2(1-15)[MCP-1]]
[13]
  Kd: 25000 nM
Chemokine receptors
  gp120 ED-50: 3 µM
[14]
  DARC binding: 18 µM
[15]
  fold decrease in Duffy binding against LFL peptide 2: 100 fold
CXCR4 (human), P61073
  Kd: < 100 nM
CCR5 (human), P51681
  Kd: < 100 nM

## EICADP [Peptide 3(1-6)[MCP-1]]
[1]
  Duffy selectivity: 5.32
